Laboratory results published in patent publication US20120207770A1 (NANYANG TECHNOLOGICAL UNIVERSITY, published 2012).

Key:
[1] = molecular target: T1, human integrin β1 (enriched membrane protein extract of transfected HEK293T cells) (human, UniProt P05556 21-798, limits assumed); assay: SPR, integrin over immobilized ANGPTL4 on a GLC chip, global fit to Langmuir 1:1 model
T1 construct: Membrane extract enriched on a sucrose step gradient before SPR; also called integrins B1
Experimental: Immunoprecipitates were probed with anti-Src for normalization. Activated Src, Na⁺/H⁻ exchanger 1 and catalase were assessed using cognate antibodies. Representative pictures from three experiments. (h) Intracellular ROS of A-5RT3CTRL and A-5RT3ANGPTL4 evaluated by 5-(and 6-)-chloromethyl-2′,7′-dichlorodihydro-fluorescein diacetate acetyl ester. Data are normalized to total protein content. (i) Activities of caspases in A-5RT3ANGPTL4 after 2 h suspension. Values (mean±S.D.) represent a fold change above A-5RT3CTRL (n=3). *:p<0.05, **:p<0.01.
Purifided fibrinogen-like fragment of ANGPTL4 (cANGPTL4) was immobilized onto ProteOn GLC chip by amine coupling as recommended by the manufacturer (Bio-Rad). Different concentrations of integrins were introduced into the GLC chip at a flow rate of 25 μl/min for […] with running buffer (50 mM Tris, pH8.0, 100 mMNaC1). […] The affinity constants of the 6 mAbs for ANGPTL4 were determined using the one shot Kinetics protocol as described by manufacturer (Bio-Rad).
Purified fibrinogen-like fragment of ANGPTL4 (cANGPTL4) was immobilized onto ProteOn GLC chip by amine coupling, as recommended by the manufacturer (Bio-Rad). […] The affinity constants of the 6 mAbs for ANGPTL4 were determined using the One-Shot Kinetics protocol as described by manufacturer (Bio-Rad).

[2] = molecular target: T2, human integrin β5 (enriched membrane protein extract of transfected HEK293T cells) (human, UniProt P18084 24-799, limits assumed); assay: SPR, integrin over immobilized ANGPTL4, global fit to Langmuir 1:1 model
T2 construct: Membrane extract enriched on a sucrose step gradient before SPR; also called integrins B5; integrin 5
T2 sequence (P18084 24-799 limits assumed): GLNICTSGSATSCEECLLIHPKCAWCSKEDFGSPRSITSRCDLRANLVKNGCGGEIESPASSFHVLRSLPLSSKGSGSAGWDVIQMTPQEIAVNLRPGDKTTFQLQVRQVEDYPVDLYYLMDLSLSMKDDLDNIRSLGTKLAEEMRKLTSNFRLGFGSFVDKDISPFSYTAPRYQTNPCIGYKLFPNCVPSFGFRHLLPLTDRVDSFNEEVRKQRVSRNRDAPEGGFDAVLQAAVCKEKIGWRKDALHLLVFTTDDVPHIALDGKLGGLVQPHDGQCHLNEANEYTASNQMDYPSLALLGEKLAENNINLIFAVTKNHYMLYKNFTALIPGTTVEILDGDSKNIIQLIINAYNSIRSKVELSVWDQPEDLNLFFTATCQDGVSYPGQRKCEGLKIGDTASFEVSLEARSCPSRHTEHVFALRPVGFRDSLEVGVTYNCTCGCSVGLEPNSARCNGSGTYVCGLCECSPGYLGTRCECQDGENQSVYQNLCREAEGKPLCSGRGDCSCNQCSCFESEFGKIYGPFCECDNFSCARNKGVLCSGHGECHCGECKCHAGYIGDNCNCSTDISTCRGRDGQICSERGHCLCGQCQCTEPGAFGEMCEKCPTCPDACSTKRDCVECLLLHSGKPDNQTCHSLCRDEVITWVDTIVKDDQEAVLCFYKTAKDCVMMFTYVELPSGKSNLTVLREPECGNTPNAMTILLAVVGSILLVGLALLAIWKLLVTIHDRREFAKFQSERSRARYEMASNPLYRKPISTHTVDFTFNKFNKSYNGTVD
Experimental: Purifided fibrinogen-like fragment of ANGPTL4 (cANGPTL4) was immobilized onto ProteOn GLC chip by amine coupling as recommended by the manufacturer (Bio-Rad). Different concentrations of integrins were introduced into the GLC chip at a flow rate of 25 μl/min for […] with running buffer (50 mM Tris, pH8.0, 100 mMNaC1). […] Global fitting of the data to a Languir 1:1 model was used to determine the association (Kₒₙ) dissociation (Koff) and affinity constant (KD) using scrubber2 (Biologic Software Pty Ltd). […] The affinity constants of the 6 mAbs for ANGPTL4 were determined using the one shot Kinetics protocol as described by manufacturer (Bio-Rad).
Purified fibrinogen-like fragment of ANGPTL4 (cANGPTL4) was immobilized onto ProteOn GLC chip by amine coupling, as recommended by the manufacturer (Bio-Rad). Different concentrations of integrins were introduced into the GLC chip at a flow rate of 25 μl/min for […] with running buffer (50 mM Tris, pH 8.0, 100 mM NaCl). […] Global fitting of the data to a Langmuir 1:1 model was used to determine the association (kₒₙ), dissociation (koff) and affinity constant (KD) using Scrubber2 (BioLogic Software Pte Ltd). […] The affinity constants of the 6 mAbs for ANGPTL4 were determined using the One-Shot Kinetics protocol as described by manufacturer (Bio-Rad).

T1 sequence (P05556 21-798 limits assumed): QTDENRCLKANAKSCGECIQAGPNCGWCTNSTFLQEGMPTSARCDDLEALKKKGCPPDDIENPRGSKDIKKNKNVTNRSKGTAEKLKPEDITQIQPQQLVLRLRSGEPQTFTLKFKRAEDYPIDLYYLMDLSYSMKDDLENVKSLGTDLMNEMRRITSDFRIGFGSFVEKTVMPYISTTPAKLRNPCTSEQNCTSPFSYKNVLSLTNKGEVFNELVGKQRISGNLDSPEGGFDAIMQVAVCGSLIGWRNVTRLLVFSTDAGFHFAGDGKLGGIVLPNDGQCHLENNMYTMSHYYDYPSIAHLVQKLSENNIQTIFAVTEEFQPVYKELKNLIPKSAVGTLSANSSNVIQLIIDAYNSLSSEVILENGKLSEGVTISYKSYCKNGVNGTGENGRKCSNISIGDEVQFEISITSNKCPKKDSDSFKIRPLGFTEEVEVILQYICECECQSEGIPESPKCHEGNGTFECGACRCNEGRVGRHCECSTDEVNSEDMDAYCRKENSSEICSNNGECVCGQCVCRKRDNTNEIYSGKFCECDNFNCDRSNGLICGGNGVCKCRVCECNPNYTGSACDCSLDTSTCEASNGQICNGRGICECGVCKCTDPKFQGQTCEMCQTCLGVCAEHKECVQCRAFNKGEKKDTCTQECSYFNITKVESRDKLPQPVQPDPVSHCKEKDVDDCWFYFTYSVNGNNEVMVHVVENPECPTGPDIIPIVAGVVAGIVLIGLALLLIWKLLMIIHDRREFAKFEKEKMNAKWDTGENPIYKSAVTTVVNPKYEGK

- Kd [1]: ~100 nM
- Kd [2]: ~100 nM
B1: recombinant C-terminal fibrinogen-like fragment of human ANGPTL4 (cANGPTL4, a.a. 186-406) (ligand, UniProt Q9BY76 186-406, looked up)
chain: RDCQELFQVGERQSGLFEIQPQGSPPFLVNCKMTSDGGWTVIQRRHDGSVDFNRPWEAYKAGFGDPHGEFWLGLEKVHSITGDRNSRLAVQLRDWDGNAELLQFSVHLGGEDTAYSLQLTAPVAGQLGATTVPPSGLSVPFSTWDQDHDLRRDKNCAKSLSGGWWFGTCSHSNLNGQYFRSIPQQRQKLKKGIFWKTWRGRYYPLQATTMLIQPMAAEAAS
notes: range 186-406; also called immobilized-ANGPTL4; fibrinogen-like fragment of ANGPTL4; not shown: N-terminal histidine tag
